Experimental data from PMC12823420 (2024).
Where two headings read alike, the source gives them in different places. Where no end group is shown, it is not given here.

Experiments:
[1] = target: T1, UAP56 (human, UniProt Q13838 1-428)
[2] = target: T1, UAP56; assay: AMP-PNP
[3] = target: T1, UAP56; assay: RNA + AMP-PNP
[4] = target: T1, UAP56; assay: RNA + AMP-PNP; remark: listed apart in the source
[5] = target: T1, UAP56; assay: AMP-PNP; remark: listed apart in the source

| koff [1] [s⁻¹] | koff [2] [s⁻¹] | koff [3] [s⁻¹] | Kd [4] [µM] | Kd [5] [µM] | Binder |
| --- | --- | --- | --- | --- | --- |
| 1.39 | 0.83 | 1.68 | 12 | 11 | SISRKSEDDEKLKKRKERFGIVTS (also: biotinylated, site not given here) [SARNP UCM-4 peptide, biotinylated] |
| 3.44 | – | 2.67 | 13 | 12 | VDVAAEKKVVKITSEIPQTERMQKRAERFNVPVS (also: biotinylated, site not given here) [SARNP UCM-1 peptide, biotinylated] |
